Assay in all cases: pull-down; GST-fused Clr4 (0.2 nmol) on Glutathione Magnetic Agarose Beads, 0.2 nmol MBP-fused Clr4 in 200 μl of 10 mM Tris-HCl pH 7.5, 150 mM NaCl, 0.1 mM EDTA, 0.1% Triton X-100, 4°C, 2 h; SDS-PAGE and CBB staining; also at 0 mM NaCl and with pericentromeric RNA added
What all share (conditions): both partners purified

Experiment [1] has as its target T1, MBP-fused catalytic domain of Clr4 (MBP-Clr4-C, amino acids 192-490) (S. pombe, UniProt O60016 192-490).
T1 construct: Clr4, S. pombe, C-terminal catalytic domain, amino acids 192-490; cloned into pMALc2; source: E. coli BL21 (DE3), purified (Amylose Resin, dialysed)

The target of experiment [2] is T2, MBP-Clr4-C 472–475A (S. pombe, UniProt O60016 192-490, 472–475A).
T2 construct: source: E. coli BL21 (DE3), purified (Amylose Resin, dialysed)
T2 sequence (O60016 other isoform, or with tags, fused parts or gaps 472–475A | 472–475A): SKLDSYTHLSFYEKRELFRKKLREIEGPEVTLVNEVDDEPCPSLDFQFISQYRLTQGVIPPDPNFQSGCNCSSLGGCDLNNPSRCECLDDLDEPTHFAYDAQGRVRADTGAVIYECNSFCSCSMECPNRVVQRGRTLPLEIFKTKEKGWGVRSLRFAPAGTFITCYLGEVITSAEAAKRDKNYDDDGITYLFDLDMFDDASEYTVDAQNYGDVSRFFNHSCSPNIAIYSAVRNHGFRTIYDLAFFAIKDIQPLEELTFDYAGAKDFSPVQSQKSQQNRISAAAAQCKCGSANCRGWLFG

Experiment [3] addresses T3, MBP-Clr4-C 472–475E (S. pombe, UniProt O60016 192-490, 472–475E).
T3 construct: source: E. coli BL21 (DE3), purified (Amylose Resin, dialysed)

T1 sequence (O60016 192-490): as the sequence (O60016 other isoform, or with tags, fused parts or gaps 472–475A | 472–475A) above, with A281K, A282L, A283R, A284R counted along it
T3 sequence (O60016 other isoform, or with tags, fused parts or gaps 472–475E | 472–475E): as the sequence (O60016 other isoform, or with tags, fused parts or gaps 472–475A | 472–475A) above, with A281E, A282E, A283E, A284E counted along it

B1: GST-Clr4-N3 (domain or fragment, S. pombe, UniProt O60016 1-126, looked up)
chain: MSPKQEEYEVERIVDEKLDRNGAVKLYRIRWLNYSSRSDTWEPPENLSGCSAVLAEWKRRKRRLKGSNSDSDSPHHASNPHPNSRQKHQHQTSKSVPRSQRFSRELNVKKENKKVFSSQTTKRQSR
notes: Clr4, S. pombe, residues 1-126; source: E. coli BL21 (DE3), purified (Glutathione Sepharose 4B, anion exchange SOURCE 15Q)
In the case of B1, in experiment [1], the binding result is on record as “binds”.

B2: GST-fused Clr4 N-terminus (GST-Clr4-N, amino acids 1-191) (domain or fragment, S. pombe, UniProt O60016 1-191, looked up)
chain: MSPKQEEYEVERIVDEKLDRNGAVKLYRIRWLNYSSRSDTWEPPENLSGCSAVLAEWKRRKRRLKGSNSDSDSPHHASNPHPNSRQKHQHQTSKSVPRSQRFSRELNVKKENKKVFSSQTTKRQSRKQSTALTTNDTSIILDDSLHTNSKKLGKTRNEVKEESQKRELVSNSIKEATSPKTSSILTKPRNP
notes: Clr4, S. pombe, N-terminus comprising the CD and IDR, amino acids 1-191; cloned into pGEX6P-3; also called wild-type GST-Clr4-N; GST-Clr4-N2 (label worked out); source: E. coli BL21 (DE3), purified (Glutathione Sepharose 4B, anion exchange SOURCE 15Q)
For B2, the binding result in experiment [2], in experiment [1] and in experiment [3] was “binds” throughout.

The values are drawn from article PMC12418378, “Intrinsically disordered region of Clr4/Suv39 regulates its enzymatic activity and ensures heterochromatin spreading” (Nucleic Acids Research, 2025).
